Experimental data: paper PMC5888754
Changes are numbered by the printed parent chain. Where two headings read alike, the source gives them in different places.

Assays:
CYV-VP3 (Culex Y virus) = test: competition
DXV-VP3 = target: T1, DXV-VP3 (Drosophila X virus, UniProt Q96724 724-1032); test: single-molecule TIRF
T1 sequence: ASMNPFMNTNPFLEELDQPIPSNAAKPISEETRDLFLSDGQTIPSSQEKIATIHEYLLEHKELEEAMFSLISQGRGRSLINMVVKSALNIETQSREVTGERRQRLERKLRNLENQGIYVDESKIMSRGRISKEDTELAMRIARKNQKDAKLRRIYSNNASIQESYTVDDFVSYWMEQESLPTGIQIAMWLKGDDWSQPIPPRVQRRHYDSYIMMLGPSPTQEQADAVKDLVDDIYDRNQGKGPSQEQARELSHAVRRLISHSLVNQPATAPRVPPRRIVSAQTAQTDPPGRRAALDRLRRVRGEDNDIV

DCV-1A [1] = target: T2, DCV-1A (Drosophila C virus, UniProt O36966 1-97); test: single-molecule TIRF
T2 sequence: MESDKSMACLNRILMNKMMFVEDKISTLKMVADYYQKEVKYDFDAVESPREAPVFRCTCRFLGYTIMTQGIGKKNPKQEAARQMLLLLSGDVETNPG

DCV-1A [2] = target: T2, DCV-1A; test: single-molecule TIRF; remark: listed apart in the source
DCV-1A [3] = target: T2, DCV-1A; test: single-molecule TIRF; remark: listed apart in the source
Dcr-2;Loqs-PD (LqPD) = Dcr-2;Loqs-PD (LqPD) (Drosophila melanogaster?;Drosophila …, UniProt A1ZAW0;Q9VJY9-4 1-1722;1-359, |); test: single-molecule TIRF

Molecule: GGCAAUGAAAGAUCGCGGGUCUGCUCAAACACUCCGUUAUGUAGCAUUCCUUGAUCGUGAGAUUCUUCUU / AAGAAGAAUCUCACGAUCAAGGAAUGCUACAUAACGGAGUGUUUGAGCAGACCCGCGAUCUUUCAUUGCC [70-nt dsRNA blunt end]
- binding signal (CYV-VP3 (Culex Y virus)): 80 % inhibition

B1: 50-nt dsRNA (structured_RNA)
RNA: GGGACCUCAUCCAACAUAUCAAACUCCAUCAUCCAACAUAUCAAACUCCAGUCGAGUGGAGUUUGAUAUGUUGGAUGAUGGAGUUUGAUAUGUUGGAUGAGGUCCCAA
- binding result (DXV-VP3): binds
- binding result (DCV-1A [1]): binds

B2: pre-let-7a-1 (2 mismatches) (structured_RNA)
RNA: UGAGGUAGUAGGUUGUAUAGUUUUAGGGUCACACCCACCACUGGGAGAUAACUAUACAAUCUACUGUCUUUCU
- binding result (DCV-1A [2]): binds

B3: pre-miRNA (no mismatches) (structured_RNA)
RNA: B2 RNA with G5A, U6C
- binding result (DCV-1A [3]): binds

B4: 70-nt dsRNA blunt end (dsRNA)
RNA 1: GGCAAUGAAAGAUCGCGGGUCUGCUCAAACACUCCGUUAUGUAGCAUUCCUUGAUCGUGAGAUUCUUCUU
RNA 2: AAGAAGAAUCUCACGAUCAAGGAAUGCUACAUAACGGAGUGUUUGAGCAGACCCGCGAUCUUUCAUUGCC
- binding result (Dcr-2;Loqs-PD (LqPD)): binds
